Experiments:
[1] = test system: differentiated human TM (HTM) cell cultures; assay: Differentiated HTM cell cultures incubated with recombinant protein; extracellular matrix and cell contacts by immunofluorescence, phase microscopy and western blot; format: cell-based; settings: for disruption of cell contacts or matrix assembly: pentapeptides administered separately to HTM cell cultures
Procedure: (§1) Differentiated human TM (HTM) cell cultures were incubated with a recombinant Hep II domain protein for eighteen hours. The effect on the extracellular matrix and cell contacts were observed using immunofluorescence microcopy, phase microscopy and western blot. Differentiated HTM cultures look like endothelial cells and form cell to cell junctions and closely resemble TM cells in vivo. Differentiated HTM cells also secrete matrix proteins such as fibronectin, type IV collagen and laminin. Non-differentiated cells lack these qualities and are less suitable for in vitro analysis methods. Cells were grown as described in Polansky J R, Weinreb R, Alvarado J A. Studies on human trabecular cells propagated in vitro. Vis Res 1981;21 :155-60 and Polansky J R, Weinreb R N, Baxter J D, Alvarado J. Human trabecular cells. I. Establishment in tissue culture and growth characteristics. Invest Ophthalmol Vis Sci 1979;18:1043-9, both incorporated by reference in their entirety.
After incubation, the turnover of fibronectin fibrils, a good indicator of matrix formation, was studied. […] The Hep II protein was a GST protein. The GST portion was cleaved with thrombin as described by Bultmann, H., et al., Fibronectin Fibrilogenesis Involves the Heparin II Binding Domains of Fibronectin, J. Biol. Chem. 273:2601-2609 (1998).
To identify the active region of the Hep II domain, smaller fragments including either the Type III repeat 12, the Type III repeat 14, or the Type III repeats 13 and 14 were produced as recombinant GST proteins, as above.

vinculin = assay: Tyrosine phosphorylation of vinculin after treatment; format: cell-based, human; settings: after treatment of the eye with the Hep II domain
Procedure: as §1
Further, a number of morphological changes also indicate disrupted cell contacts. […] Vinculin is a major structural protein that maintain cell-cell and cell-adhesion contracts. Changes in its phosphorylation state indicate that the treatment has biochemically affected the molecules that maintain cell-cell and cell-adhesion contracts. […]

[2] = test system: Schlemm's canal endothelium and extracellular matrix of the eye; assay: Light and electron microscopy of fixed treated and untreated organ-cultured eyes; parameters: species or system human; settings: fixed eyes after perfusion
Description: The treated and untreated eyes were then fixed and prepared for both light and electron microscopy. […] Part of the inner side of the cannel was disrupted and small discontinuous cellular processes replaced a continuous cell layer found in a normal eye. […] These changes can account for the increased outflow in the presence of the Hep II domain since they would have created additional spaces or openings for fluid flow.

[3] = test system: human trabecular meshwork organ culture (eye); assay: Human eye organ culture perfusion, paired control and test eyes, IOP
Procedure: While this effect on matrix formation was relatively slow, the Hep II domain acts quickly in intact eyes to increase outflow facility. In human eye culture studies using pairs of control and test eyes, as described by Johnson, D H and Tschumper, R C. (1987) Human Trabecular Meshwork Organ Culture. IVOS 28:945-953, incorporated by reference, a baseline IOP was determined, pumps were turned off and the Hep II domain was injected at 13.8 μM into the anterior chamber of one eye. The pumps were kept off for four hours to allow the Hep II domain to mix with the contents of the anterior chamber. After four hours, the treated eyes were perfused with buffer containing the Hep II domain at 13.8 μM for twenty-four hours. Untreated eyes were perfused with buffer. […] After twenty-four hours, the pumps were turned off and the perfusate in both eyes was replaced with fresh buffer without the protein.

Row | Molecule | disruption of cell contacts or matrix assembly [1] | tyrosine phosphorylation of vinculin (vinculin) | level of fibronectin matrixes (turnover of fibronectin fibrils) ([1]; HTM cell cultures, 4.6 μM, eighteen hours incubation) | morphological changes indicating disrupted cell contacts ([1]; compared to untreated cultures) | morphological changes at higher peptide concentrations ([1]; higher peptide concentrations) | electron microscopy, endothelium in Schlemm's canal [2] | electron microscopy, extracellular matrix in the juxtacanalicular region [2] | light microscopy, treated versus untreated eyes [2] | decrease in IOP ([3]; 13.8 μM injected into the anterior chamber, pumps off four hours, then perfusion at 13.8 μM for twenty-four hours, versus baseline) [%] | pressure in the treated eye after replacement of perfusate with buffer without the protein ([3]; after twenty-four hours perfusion, absence of the Hep II domain) | treated organ-cultured eyes with lower IOP after treatment ([3]; plurality of assays, number of treated eyes)
1 | IDAPS (listed as Homo sapiens) | neither disrupted cell contacts or matrix assembly |  |  |  |  |  |  |  |  |  | 
2 | PRARI (listed as Homo sapiens) | neither disrupted cell contacts or matrix assembly |  |  |  |  |  |  |  |  |  | 
3 | Hep II domain: recombinant 33 kilodalton Hep II domain of fibronectin containing type III repeats 12, 13 and 14 (SEQ ID NO:2) (protein, listed as Homo sapiens) IPAPTDLKFTQVTPTSLSAQWTPPNVQLTGYRVRVTPKEKTGPMKEINLAPDSSSVVVSGLMVATKYEVSVYALKDTLTSRPAQGVVTTLENVSPPRRARVTDATETTITISWRTKTETITGFQVDAVPANGQTPIQRTIKPDVRSYTITGLQPGTDYKIYLYTLNDNARSSPVVIDASTAIDAPSNLRFLATTPNSLLVSWQPPRARITGYIIKYEKPGSPPREVVPRPRPGVTEATITGLEPGTEYTIYVIALKNNQKSEPLIGRKKT |  | significant increase | dramatic decrease | increase in the number of retraction fibers | retraction and rounding up of many cells | altered | altered and amorphous material appeared in the cribiform meshwork | not distinguishable | 32 | returned to the baseline level | six of seven
